Experimental data reported in publication PMC7192624, “A Snu114–GTP–Prp8 module forms a relay station for efficient splicing in yeast” (Nucleic Acids Research, 2020).
Residue numbers refer to the chain shown, from its start. Names and notes keep the numbering of the source.

B1: Prp8^SBR Δ421–468 (domain or fragment, yeast, UniProt P33334 315-555, looked up)
chain: STPLRDEVTDKNYYYLFDKKSFFNGKALNNAIPGGPKFEPLYPREEEEDYNEFNSIDRVIFRVPIRSEYKVAFPHLYNSRPRSVRIPWYNNPVSCIIQNDEEYDTPILPNTKDAMSLYHSPFPFNRTKGKMVRAQDVALAKKWFLQHPDEEYPVKVKVSYQKLLKNYVLNELHPTLPTNHNKTKLLKSLKNTK
notes: also called Prp8^Δ421–468; source: insect cells, co-produced with Snu114; complex purified; not shown: Strep tag (from the vector pFL-N-Strep), N-terminal, kept
B2: Aar2 (natural protein, yeast, UniProt P32357 1-355, looked up)
chain: MNTVPFTSAPIEVTIGIDQYSFNVKENQPFHGIKDIPIGHVHVIHFQHADNSSMRYGYWFDCRMGNFYIQYDPKDGLYKMMEERDGAKFENIVHNFKERQMMVSYPKIDEDDTWYNLTEFVQMDKIRKIVRKDENQFSYVDSSMTTVQENELLKSSLQKAGSKMEAKNEDDPAHSLNYTVINFKSREAIRPGHEMEDFLDKSYYLNTVMLQGIFKNSSNYFGELQFAFLNAMFFGNYGSSLQWHAMIELICSSATVPKHMLDKLDEILYYQIKTLPEQYSDILLNERVWNICLYSSFQKNSLHNTEKIMENKYPELLGKDNEDDALIYGISDEERDDEDDEHNPTIVGGLYYQRP
notes: Aar2, U5 snRNP assembly factor, yeast; synthetic gene; source: complex purified (StrepTactin, Heparin, Mono Q, SEC); not shown: Strep tag (from the vector pIDK-C-Strep), C-terminal, kept
B3: Prp8 residues 315-555 (Prp8^SBR), chymotryptic fragment (domain or fragment, yeast, UniProt P33334 315-555, looked up)
chain: STPLRDEVTDKNYYYLFDKKSFFNGKALNNAIPGGPKFEPLYPREEEEDYNEFNSIDRVIFRVPIRSEYKVAFPHLYNSRPRSVRIPWYNNPVSCIIQNDEEYDTPALFFDPSLNPIPHFIDNNSSLNVSNTKENGDFTLPEDFAPLLAEEEELILPNTKDAMSLYHSPFPFNRTKGKMVRAQDVALAKKWFLQHPDEEYPVKVKVSYQKLLKNYVLNELHPTLPTNHNKTKLLKSLKNTK
B4: Prp8^SBR Y403F (domain or fragment, yeast, UniProt P33334 315-555, looked up)
chain: B3 chain with Y89F
notes: also called Prp8^Y403F; source: insect cells, co-produced with Snu114; complex purified; not shown: Strep tag (from the vector pFL-N-Strep), N-terminal, kept
B5: Prp8^SBR Y403A (domain or fragment, yeast, UniProt P33334 315-555, looked up)
chain: B3 chain with Y89A
notes: also called Prp8^Y403A; source: insect cells, co-produced with Snu114; complex purified; not shown: Strep tag (from the vector pFL-N-Strep), N-terminal, kept
B6: Prp8^SBR 402–406_5S (domain or fragment, yeast, UniProt P33334 315-555, looked up)
chain: B3 chain with W88S, Y89S, N90S, N91S, P92S
notes: also called Prp8^402–406_5S; source: insect cells, co-produced with Snu114; complex purified; not shown: Strep tag (from the vector pFL-N-Strep), N-terminal, kept
B7: Prp8^SBR WY402-403AA (domain or fragment)
chain: not shown
notes: also called Prp8^WY402/3AA; source: insect cells, co-produced with Snu114; complex purified; not shown: Strep tag (from the vector pFL-N-Strep), N-terminal, kept
B8: Prp8^SBR Δ402–406 (domain or fragment, yeast, UniProt P33334 315-555, looked up)
chain: STPLRDEVTDKNYYYLFDKKSFFNGKALNNAIPGGPKFEPLYPREEEEDYNEFNSIDRVIFRVPIRSEYKVAFPHLYNSRPRSVRIPVSCIIQNDEEYDTPALFFDPSLNPIPHFIDNNSSLNVSNTKENGDFTLPEDFAPLLAEEEELILPNTKDAMSLYHSPFPFNRTKGKMVRAQDVALAKKWFLQHPDEEYPVKVKVSYQKLLKNYVLNELHPTLPTNHNKTKLLKSLKNTK
notes: also called Prp8^Δ402–406; source: insect cells, co-produced with Snu114; complex purified; not shown: Strep tag (from the vector pFL-N-Strep), N-terminal, kept
B9: Snu114^72-1008 (yeast Snu114 lacking the acidic N-terminal region) (domain or fragment, UniProt P36048 72-1008, looked up)
chain: KEVEVLMETKNTQSPQTPLVEPVTERTKLQEHTIFTQLKKNIPKTRYNRDYMLSMANIPERIINVGVIGPLHSGKTSLMDLLVIDSHKRIPDMSKNVELGWKPLRYLDNLKQEIDRGLSIKLNGSTLLCTDLESKSRMINFLDAPGHVNFMDETAVALAASDLVLIVIDVVEGVTFVVEQLIKQSIKNNVAMCFVINKLDRLILDLKLPPMDAYLKLNHIIANINSFTKGNVFSPIDNNIIFASTKLGFTFTIKEFVSYYYAHSIPSSKIDDFTTRLWGSVYYHKGNFRTKPFENVEKYPTFVEFILIPLYKIFSYALSMEKDKLKNLLRSNFRVNLSQEALQYDPQPFLKHVLQLIFRQQTGLVDAITRCYQPFELFDNKTAHLSIPGKSTPEGTLWAHVLKTVDYGGAEWSLVRIYSGLLKRGDTVRILDTSQSESRQKRQLHDISKTETSNEDEDEDDETPSCEVEEIGLLGGRYVYPVHEAHKGQIVLIKGISSAYIKSATLYSVKSKEDMKQLKFFKPLDYITEAVFKIVLQPLLPRELPKLLDALNKISKYYPGVIIKVEESGEHVILGNGELYMDCLLYDLRASYAKIEIKISDPLTVFSESCSNESFASIPVSNSISRLGEENLPGLSISVAAEPMDSKMIQDLSRNTLGKGQNCLDIDGIMDNPRKLSKILRTEYGWDSLASRNVWSFYNGNVLINDTLPDEISPELLSKYKEQIIQGFYWAVKEGPLAEEPIYGVQYKLLSISVPSDVNIDVMKSQIIPLMKKACYVGLLTAIPILLEPIYEVDITVHAPLLPIVEELMKKRRGSRIYKTIKVAGTPLLEVRGQVPVIESAGFETDLRLSTNGLGMCQLYFWHKIWRKVPGDVLDKDAFIPKLKPAPINSLSRDFVMKTRRRKGISTGGFMSNDGPTLEKYISAELYAQLRENGLVP
notes: synthetic gene; Co-purifies with endogenous GTP; source: insect cells (MultiBac baculovirus); co-produced with Prp8 constructs or alone; purified (StrepTactin, SEC); not shown: Strep tag (from the vector pIDS-C-Strep), C-terminal, kept

Legend:
Conditions in all cases: both partners purified
[1] = target: B9; assay: SEC; two proteins co-produced in insect cells, both Strep-tagged; StrepTactin capture, then SEC on Superdex S200 in 10 mM TRIS-HCl pH 8.0, 300 mM NaCl, 2 mM DTT; co-purification of wt and variant complexes
[2] = target: T1, Prp8^132-2413 (large fragment of yeast Prp8 lacking the first 131 residues) (yeast, UniProt P33334 132-2413); assay: SEC; three proteins co-produced in insect cells, all Strep-tagged; complex purified by StrepTactin, Heparin, Mono Q and SEC (Superose 6, 50 mM TRIS-HCl pH 8.5, 300 mM NaCl, 2 mM DTT); analytical gel filtration with SDS-PAGE of fractions
T1 construct: Prp8, yeast, residues 132-2413; synthetic gene; methods and results print 132-2413; source: complex purified (StrepTactin, Heparin, Mono Q, SEC); not shown: Strep tag (from the vector pFL-C-Strep), C-terminal, kept

[3] = target: B9; assay: SEC; limited proteolysis of the purified trimeric complex with chymotrypsin (room temperature, 35 min), then SEC on Superose 6 Increase in 20 mM TRIS-HCl pH 8.5, 500 mM NaCl, 2 mM DTT; fragments identified by mass spectrometric fingerprinting and N-terminal sequencing

B1
binding result [1]: binds

B2
binding result [2]: binds

B3
binding result [3]: binds

B4
binding result [1]: binds

B5
binding result [1]: binds

B6
binding result [1]: binds

B7
binding result [1]: binds

B8
binding result [1]: binds

B9
binding result [2]: binds
